Measurements taken from the supplement of paper PMC7877785.
± gives the uncertainty stated by the source.

Experiment: self-splicing fitness, log relative to wild type (ln ratio); higher = more splicing; Tetrahymena group I intron in knt gene, E. coli kanamycin selection, DiMSum; sequences stand for … in CUCUCU…GGAGGGAAAAGUUAUCAGGCAUGCACCUGGUAGCUAGUCUUUAAACCAAUAGAUUGCAUCGGUUUAAAAGGCAAGACCGUCAAAUUGCGGGAAAGGGGUCAACAGCCGUUCAGUACCAAGUCUCAGGGGAAACUUUGAGAUGGCCUUGCAAAGGGUAUGGUAAUAAGCUGACGGACAUGGUCCUAACCACGCAGCCAAGUCCUAAGUCAACAGAUCUUCUGUUGAUAUGGAUGCAGUUCACAGACUAAAUGUCGGUCGGGGAAGAUGUAUUCUUCUCAUAAGAUAUAGUCGGACCUCUCCUUAAUGGGAGCUAGCGGAUGAAGUGAUGCAACACUGGAGCCGCUGGGAACUAAUUUGUAUGCGAAAGUAUAUUGAUUAGUUUUGGAGUACUCGUGGUCG
Procedure, shortened: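 DiMSum derived fitness as the error-weighted combination of fold changes across replicates, kanamycin versus no kanamycin, normalised to wild type. E. coli BL21(DE3) held the library, which randomised all eight P1ex-region intron nucleotides within the knt kanamycin-resistance gene on pET-22b(+). Six replicate transformations grew overnight at 37°C or 30°C on LB agar with or without 25 μg/mL kanamycin, also containing 100 μg/mL carbenicillin, 50 μM IPTG and 0.2% rhamnose, and pooled colonies were amplicon-sequenced on an Illumina HiSeq 2500.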

Row | Sequence | self-splicing fitness (ln) (30 °C) | self-splicing fitness (ln) (37 °C)
1 | GCAAAGCAAUAUUACGGAUG | -2.52 ± 0.12 | -1.74 ± 0.13
2 | GCAAAGCAAUAUUACGGCGU | -1.78 ± 0.1 | -0.692 ± 0.12
3 | ACGUAGCAAUAUUACGCCUA | -0.946 ± 0.1 | -0.412 ± 0.099
4 | CGCAAGCAAUAUUACGGUGU | -3.42 ± 0.16 | -3.25 ± 0.23
5 | GGCAAGCAAUAUUACGCCGG | -2.81 ± 0.3 | -3.19 ± 0.22
6 | CACGAGCAAUAUUACGGUAC | -2.69 ± 0.21 | -2.81 ± 0.3
7 | UAGAAGCAAUAUUACGUGAU | -2.73 ± 0.11 | -1.84 ± 0.11
8 | CGUAAGCAAUAUUACGUGAU | -3.93 ± 0.31 | -2.57 ± 0.24
9 | UUAUAGCAAUAUUACGUCCA | -1.54 ± 0.26 | -0.846 ± 0.29
10 | UGUUAGCAAUAUUACGGCGA | 0.174 ± 0.14 | -0.431 ± 0.15
11 | AGUCAGCAAUAUUACGGGUU | -0.799 ± 0.077 | -0.628 ± 0.086
12 | CCCUAGCAAUAUUACGUCUU | -2.95 ± 0.13 | -2.54 ± 0.25
13 | GUCUAGCAAUAUUACGCUUC | -1.25 ± 0.11 | -0.47 ± 0.12
14 | GUAUAGCAAUAUUACGCGAC | -2.49 ± 0.3 | 
15 | AUGCAGCAAUAUUACGAGUU | -3.2 ± 0.11 | -1.39 ± 0.1
16 | CGACAGCAAUAUUACGAACU | -1.16 ± 0.13 | -0.845 ± 0.15
17 | ACUGAGCAAUAUUACGACCC |  | -0.357 ± 0.33
18 | CACCAGCAAUAUUACGGUCC | -0.606 ± 0.074 | -0.037 ± 0.11
19 | AUCAAGCAAUAUUACGUCAG | -3.41 ± 0.18 | -1.92 ± 0.16
20 | CGGUAGCAAUAUUACGUUCC | -4.16 ± 0.33 | -1.9 ± 0.26
21 | GCCUAGCAAUAUUACGAAUG | -2.57 ± 0.18 | -2.43 ± 0.25
22 | CACCAGCAAUAUUACGUCAG | -0.342 ± 0.051 | 0.0517 ± 0.067
23 | AUACAGCAAUAUUACGAGAC | -4.95 ± 0.41 | -1.82 ± 0.18
24 | GAUGAGCAAUAUUACGGUAU | -2.71 ± 0.18 | -1.28 ± 0.14

Row | Sequence | self-splicing fitness (ln) (30 °C) | self-splicing fitness (ln) (37 °C)
25 | CUUCAGCAAUAUUACGUUGA | -3.08 ± 0.25 | -2.85 ± 0.24
26 | UGUGAGCAAUAUUACGGCGG | -2.35 ± 0.2 | -0.738 ± 0.19
27 | UACGAGCAAUAUUACGUCUG | -1.51 ± 0.1 | -1.34 ± 0.11
28 | AGCAAGCAAUAUUACGAUGU | -1.92 ± 0.068 | -0.392 ± 0.076
29 | CAUAAGCAAUAUUACGAGCC | -3.21 ± 0.35 | -2.41 ± 0.44
30 | CAUCAGCAAUAUUACGCACG | -0.443 ± 0.086 | 0.189 ± 0.11
31 | CAUUAGCAAUAUUACGCAUA | -2.03 ± 0.18 | -1.06 ± 0.15
32 | CGGUAGCAAUAUUACGUGGA | -4.03 ± 0.27 | -2.26 ± 0.17
33 | CGCCAGCAAUAUUACGCAAA | -2.31 ± 0.19 | -2.64 ± 0.26
34 | ACCCAGCAAUAUUACGUCGA | -1.03 ± 0.078 | -0.528 ± 0.077
35 | CUAGAGCAAUAUUACGACUA | -1.97 ± 0.12 | -1.26 ± 0.15
36 | AUGAAGCAAUAUUACGCGGG | -1.39 ± 0.11 | -0.785 ± 0.14
37 | GCAAAGCAAUAUUACGCAUU | -2.78 ± 0.12 | -1.7 ± 0.14
38 | GCUUAGCAAUAUUACGAGGG | -1.83 ± 0.11 | -1.36 ± 0.11
39 | UUCGAGCAAUAUUACGAUGG | -3.47 ± 0.26 | -1.45 ± 0.33
40 | UAGAAGCAAUAUUACGGACA | -0.547 ± 0.11 | -0.0716 ± 0.13
41 | GCGCAGCAAUAUUACGCGGA | -0.906 ± 0.096 | -0.269 ± 0.084
42 | UUGUAGCAAUAUUACGACUG | -0.0934 ± 0.12 | -0.0721 ± 0.14
43 | CUAAAGCAAUAUUACGGGGA | -3.4 ± 0.16 | -1.96 ± 0.16
44 | UGCCAGCAAUAUUACGCCAU | -3.3 ± 0.28 | -2.48 ± 0.26
45 | UGGAAGCAAUAUUACGCUAC | -4.5 ± 0.34 | -2.24 ± 0.21
46 | AACCAGCAAUAUUACGUGUA | -0.891 ± 0.041 | -0.409 ± 0.049
47 | GAGGAGCAAUAUUACGGAUA | -3.62 ± 0.28 | -2.33 ± 0.37
48 | CGACAGCAAUAUUACGUGUC | -3.39 ± 0.13 | -2.01 ± 0.12
